Values of other authors as cited in EP1600162A1, “Shelf-stable formulation of glucagon-like peptide-1” (Eli Lilly & Company, priority 1998, dated 2005).

Conditions: stored at 4° C

Substance: GLP-1(7-37): GLP-1 molecule affected by dipeptidyl-peptidase IV; background peptide
- time after sample preparation at which by-products have been found: eleven
